According to US20170275375A1 (published 2017):
Values belong to the binder of their own block, whether it stands above or below them.

Tests used:
[1] = target: T1, recombinant human PD1-His (human, UniProt Q15116 25-167, limits assumed); experiment: in vitro binding to recombinant human PD1-His (FIG. 32)
T1 construct: also called recombinant PD1-His; not shown: His tag

[2] = target: T2, human PD1 expressed on cells (activated Jurkat T cells; SpESFX-2D1 transfectants) (human, UniProt Q15116 25-288); experiment: binding to 2D1 cells transfected with human PD1
T2 construct: whole, on cells; Endogenous on stimulated Jurkat cells; transfected human PD1 on SpESFX-2D1; also called CD279; 2D1 cells
T2 sequence (Q15116 25-288): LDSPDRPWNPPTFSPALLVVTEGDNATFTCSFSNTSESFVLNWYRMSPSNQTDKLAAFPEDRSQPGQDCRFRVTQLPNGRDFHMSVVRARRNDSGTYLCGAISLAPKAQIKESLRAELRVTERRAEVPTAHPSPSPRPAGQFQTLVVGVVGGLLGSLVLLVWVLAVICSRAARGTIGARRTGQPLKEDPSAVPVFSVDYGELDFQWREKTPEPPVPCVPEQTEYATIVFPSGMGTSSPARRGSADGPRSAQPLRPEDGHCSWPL

T1 sequence (Q15116 25-167 limits assumed): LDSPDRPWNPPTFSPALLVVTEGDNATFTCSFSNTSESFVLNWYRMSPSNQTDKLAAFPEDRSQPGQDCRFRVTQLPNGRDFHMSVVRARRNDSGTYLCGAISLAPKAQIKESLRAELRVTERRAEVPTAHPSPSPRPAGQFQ

- EC50 [1]: 0.072 nM
- EC50 [2]: 0.168 µg/mL
B1: 2G9 (IMMU-cPD1) (antibody, V domains shown)
VH: VKLQESGGGLVKPGGSLKLSCAASGFAFSSNDMSWVRQTPEKRLEWVATISGGGINTYYPDSVKGRFTISRDNARNTLDLQMSSLRSEDTALYYCARRSNYAWFAYWGQGTPVTVSA
VL: not shown
notes: also called chimeric anti-PD1; chimeric version of 5G9

- EC50 [2]: 0.568 µg/mL
B2: humanized anti-PD1 antibody version 5 (V5) (antibody, V domains shown)
VH: QVQLVESGGGLVKPGGSLRLSCAASGFAFSSNDMSWVRQAPGKGLEWVATISGGGINTYYPDSVKGRFTISRDNAKNTLYLQMNSLRAEDTAVYYCARRSNYAWFAYWGQGTPVTVSA
VL: DIQLTQSPASLAVSLGQRATISCRASESVDTYGISFMNWFQQKPGQPPKLLISPNQGSGVPARFSGSGSGTDFTLTINSLEAEDTAVYFCQQSKEVPWTFGGGTKLEIK
notes: V5 is V4 with a putative light-chain N-glycosylation site removed; also called hPD1 v5; hPD1 (v5)
